# Entries after “also recorded” stand apart in the source; their conditions may differ.
# Assays:
# [1] = system: Angiotensin II; experiment: enzymatic activity of ACE2 truncates; assay type: biochemical
# [2] = system: Angiotensin II; conditions: as disclosed in U.S. Pat. No. 10,443,049; cited from earlier work
# [3] = system: hTCEpi cells; experiment: RT-qPCR of inflammation-related genes in siACE2-transfected hTCEpi cells treated with losartan; assay type: cell-based; conditions: 100 μM losartan, 24 hours
# Description: To examine if ACE2 deficiency-induced cytokine production is due to an increase in AngII activity, we investigated whether treatment of corneal epithelial cells with the AngII type 1 receptor (AT1R) antagonist, losartan could rescue the phenotype. hTCEpi deficient in ACE2 were treated with 100 μm losartan for 24 hrs and the cytokine response was evaluated.
# Immortalized corneal epithelial cells, hTCEpi, were cultured in keratinocyte serum free media (Thermo Fisher Scientific, Waltham, Mass., USA) as described before^39. For siRNA knock-down experiments, cells were transfected with 10 nM siRNA SMARTpools against ACE2 and non-target control (GE Dharmacon, Colorado, USA) as previously described^37. Two days after transfection, cells were treated with losartan (100 μM) for 24 hours, and processed for total RNA isolation.
# Total RNAs were isolated from hTCEpi cells and purified with a miRNeasy kit (Qiagen, Hilden, Germany). Real-time qPCR (RT-qPCR) was performed with a Roche LightCycler 96 System using the Roche FastStart Essential DNA Green Master (Roche, Branchburg, N.J., USA) according to the manufacturer's instructions.
# Unpaired t-test were performed to determine statistical significance. The data are shown as means±standard deviation (SD). The differences were considered significant for p values of <0.05. All experiments were replicated at least three times.
# [4] = duration of action in vivo after one injection (enzymatic activity in plasma, blood pressure); conditions: determined by enzymatic activity in plasma and by biologic response (blood pressure)
# [5] = ACE2 activity in eyes of ACE2-knockout mice after topical corneal application; assay type: in vivo, mouse; conditions: ACE2-KO mice, after one hour; for ACE2 activity in eyes: topical to cornea, 5 μg/μl in PBS or in 0.5% DMSO in PBS, vs untreated
# Description: ACE2 activity was assessed in eyes isolated from ACE2-deficient mice.
# [6] = anti-ACE2 immunofluorescence of cornea of ACE2-KO mice after NaOH treatment and topical administration; assay type: in vivo, mouse; conditions: cornea treated with NaOH for 30 s, then topical administration
# Description: The corneas of ACE2-KO mice were treated with NaOH for 30 s and then were topically administered ACE2 1-618-ABD. The cornea were subjected to immunofluorescence using anti-ACE2 antibodies. (See FIG. 13).
compound,measurement,setting,value
"1-522: ACE2 truncate, amino acids 1-522, not enzymatically active [Group 1-522]",enzyme activity of ACE2 truncate,[1],not active
"1-605: ACE2 truncate, amino acids 1-605, C-terminal deletion relative to SEQ ID NO:1 [Group 1-605]",enzyme activity of ACE2 truncate,[1],enzymatically active
same,enzymatic activity of ACE2 fragment,[2],very high enzymatic activity
"1-618: ACE2 truncate, human ACE2 amino acids 1-618 [Group 1-618]",enzyme activity of ACE2 truncate,[1],enzymatically active
"1-619: ACE2 truncate, amino acids 1-619, C-terminal deletion relative to SEQ ID NO:1 [Group 1-619]",enzyme activity of ACE2 truncate,[1],enzymatically active
same,enzymatic activity of ACE2 fragment,[2],very high enzymatic activity
CCCCc1nc(Cl)c(CO)n1Cc1ccc(-c2ccccc2-c2nn[nH]n2)cc1 [losartan],pro-inflammatory activity / cytokine storm-like phenotype in ACE2 depleted corneal epithelial cells,[3],partially rescued
same,expression of CCL2,[3]; RT-qPCR,decreased; also recorded: significantly blocked
same,expression of CXCL8,[3]; RT-qPCR,only slightly altered
same,expression of IL1B,[3]; RT-qPCR,only slightly altered
same,expression of ILIA,[3]; RT-qPCR,decreased; also recorded: significantly blocked
same,expression of TNFA,[3]; RT-qPCR,decreased; also recorded: significantly blocked
same,pro-inflammatory activity / cytokine storm-like phenotype in ACE2 depleted corneal epithelial cells,[3]; listed as Losartan,partially reverse
ACE2 1-618ABD: human ACE2 amino acids 1-618 fused to albumin binding domain (ABDCon) via a GS4 linker,duration of action of one injection,[4],at least 4 days
same,effect of DMSO on detectable ACE2 activity in eyes,[5]; 5 μg/μl in 0.5% DMSO in PBS vs in PBS,enhance detectable ACE2 activity
same,ACE2 activity in eyes,[5],Detectable ACE2 activity was observed
same,ACE2 activity in eyes,[5]; listed as hr ACE2 1-618ABD,Recovery of ACE2 activity
same,ACE2 staining by immunofluorescence in the cornea,[6],Appearance of ACE2 staining

# Reference: patent US20210386837A1, “ACTIVE LOW MOLECULAR WEIGHT VARIANTS OF ANGIOTENSIN CONVERTING ENZYME 2 (ACE2) FOR THE TREATMENT OF DISEASES AND CONDITIONS OF THE EYE” (Northwestern University, priority 2020, published 2021)
